The source of these data is patent US11091546B2, “Optimized PNE-based chimeric receptor T cell switches and uses thereof” (The Scripps Research Institute, priority 2015, dated 2021).

“And” between values parts separate entries of the source, which are not always exact repeats. Equal entries are not always repeated. “Also recorded” adds a separate entry of the source.

One data set relates to Nalm-6^Luc/GFP cells. The experiment in a line: Nalm-6 Luc/GFP leukemia xenograft. The following applies: short-dimeric sCAR-T cells; 0.5 mg/kg every other day from day 6. Format: in vivo. As for the experimental part: NSG mice were inoculated with CD19^+ Nalm-6^GFP/Luc cells. Six days later, 40×10^6 sCAR-T cells were delivered IV and switch dosing commenced every other day at 0.5 mg/kg for 10 days. Tumor burden was followed by luminescence after injection of luciferin and imaged on an in vivo imaging system (IVIS; PerkinElmer, Waltham, Mass., USA).
Asterisks indicate significance from LCNT Fab group. Data are represented as means±SEM, and statistical significance was calculated using the 2-way ANOVA with Bonferroni's post-test (B & E; shown for final time-point only) or by one-tailed student's t-test (C & F) where *=p<0.05, **=p<0.01 and ***=p<0.001.
NSG mice were inoculated with Nalm-6^GFP/Luc as described in FIG. 28. […] A fourth group consisted of two cohorts (n=3) of mice injected I.V. with sCAR-T cells without (−) LCNT Fab switch. LCNT Fab dosing in the indicated group was carried out daily at 0.5 mg/kg after the initial T cell infusion. Luminescence was measured at 6 h and subsequently every 24 h as indicated. Cohorts were sacrificed for analysis immediately following IVIS imaging. […] Gray lines indicate tumor burden in PBS and sCAR-T cell—LCNT Fab controls. […] Data are represented as means±SEM, and statistical significance was calculated using the one-tailed student's t-test (C & D) where *=p<0.05, **=p<0.01 and ***=p<0.001.
NSG mice were inoculated with Nalm6^GFP/Luc and six days later engrafted with short-dimeric sCAR-T cells as described in FIG. 29. […] Dosing was carried out for 15 d starting at day 6 (corresponding with sCAR-T cell infusion) as indicated by gray shading. Control groups CART-19 and PBS received no switch. The NS group received sCAR-T cells but no switch. Open circles denote the death of individual mice without evidence of tumor burden and may reflect GVHD. Triangles in PBS, NS and q.a.d. group indicate death due to increasing tumor burden. […] (19) indicates CART-19. […] (19) indicates CART-19. […] Triangles indicate the death of individual mice with significant tumor burden. The single mouse death in the 0.05 mg/kg group occurred while tumor burden was decreasing. […] Statistical significance was calculated using the one-tailed student's t-test (B, C & E) where *=p<0.05, **=p<0.01 and ***=p<0.001.
The different sCAR designs were tested in a xenograft model harboring luciferized NALM-6 (CD19+, CD80−, CD86−) cells. 1 mg/kg monovalent switch “A” was administered along with sCAR cells. […] Optimized hinge improved response. Short hinge CARs have faster clearance. Short, dimeric hinge CARs have improved persistence. Tumor burden was visualized with IVIS imaging. Experiments are repeated with a humanized scFv and bivalent switches.
Activity of the switchable CAR-T cell platform in vivo was evaluated via tumor regression in a Nalm-6^Luc/GFP leukemia xenograft model in immunodeficient NOD scid gamma (NSG) mice. These mice without treatment succumb to disease within 21 days. The impact of CAR hinge design on in vivo efficacy was determined using mice inoculated with Nalm-6^Luc/GFP, followed by I.V. injection of long, short, or short-dimeric sCAR-T cells 6 days later. The LCNT Fab was dosed I.V. (0.5 mg/kg) every other day for 10 days and tumor regression was followed by in vivo imaging (IVIS) of the luciferase signal from Nalm-6^Luc/GFP cells (FIG. 29A).
The effect of switch grafting position on the control of tumor burden was determined. As with the previous model, short-dimeric CAR-T cells were injected 6 days after tumor inoculation and mice were treated every other day (starting at day 6) with 0.5 mg/kg LCNT, HCNT, NTBV, LCC1, or HCCT Fab switches (FIG. 29D).
To determine the proliferation and localization of sCAR-T cell cytotoxicity during this time interval, mice were sorted into 5 cohorts per treatment regimen and analyzed at 8, 24, 48, 72, and 96 h after treatment with short-dimeric sCAR-T cells+LCNT Fab switch or with conventional CART-19 and no switch. […]

The subject of the next data set is RS4;11 (CD19 positive). The class given is cell-based, human. The protocol: Activity was assessed against NALM-6 (CD19^+), RS4;11 (CD19^+), or RPMI-8226 (CD19^−) (Table 2). The activity of the IgG (FcNull) switch was assessed against RS4;11 (CD19^+), or K562 (CD19^−) (Table 2). The activity of the C-terminal switch was assessed against RS4;11 (CD19^+), or K562 (CD19^−) (Table 4).
(§1) sCAR-T cells were co-cultured (96-well plate round bottom; 20-24h; 37° C.; 5% CO2) with RS4;11 (CD19^+) or K562 (CD19^−) cells at a ratio of 10 sCAR-T cells to 1 RS4;11/K562 cell (110,000 cells in total) in 100 uL of RPMI-1640 supplemented with 5% heat inactivated fetal calf serum (Thermo), 1% penicillin-streptomycin (Gibco), 1% L-Glutamine (Gibco), 1 mM sodium pyruvate (Gibco) and 1% non-essential amino acids (Gibco). After 24 hours, each plate was centrifuged at 400×g for 5 minutes at 4° C. To measure target cell lysis, the intracellular protein lactate dehydrogenase (LDH) was measured in the cytotoxicity assay supernatants from the co-cultured cells using the CytoTox 96® Non-Radioactive Cytotoxicity Assay kit (Promega). To measure the effector responses of the sCART cells in vitro, cytokine levels were measured in the cytotoxicity assay supernatants using the Cytometric Bead Array (CBA) Human Th1/Th2 Cytokine Kit II (BD). […]
The GCN4 CAR design was therefore modified to contain the CD8 hinge region (used in CART-19), which has an extracellular CAR domain of approximately 80 Å, and an IgG4 hinge with an extracellular CAR domain of approximately 15-30 Å. An additional construct was developed where a mutation was introduced into the IgG4 hinge that allows for spontaneous disulphide bridge formation between receptor molecules (IgG4m). […] Briefly, activated PBMC were transduced with lentivirus (SEQ ID: 1) containing the anti-PNE CAR construct (SEQ ID: 180) with the CD8 (SEQ ID: 68), IgG4 (SEQ ID: 70) and IgG4m (SEQ ID: 71) hinge domains.
Monovalent and bivalent combinations of these switches were expressed in mammalian protein expression systems (HEK293 or CHO cells) and purified using protein-G columns. Switches were used in cytotoxicity assays at a dose titration within the range of 10 nM to 0.0001 nM. The activity of each switch combination was tested in vitro in the General cytotoxicity assays where LDH release, cytokine production and sCART cell activation were compared (FIGS. 11A-11C).
CAR-T or target cells were incubated with 1 pM to […] of switch in FACS buffer (PBS, 1% FCS, 2 mM EDTA) for 30 minutes at 4° C. before being washed twice and then incubated with the PE-conjugated goat-anti-human kappa antibody (1:100). Cells were washed two times and analyzed using the Accuri flow cytometer (BD). CAR-T cell activity was determined using the CytoTox 96® Non-Radioactive Cytotoxicity Assay (Promega). CAR-T cells were incubated with target cells in the presence of switch for 20-24 hours at 37° C. in complete RPMI with 5% FCS. At the end of the assay, 30 μL of cell free supernatant was added to 30 μL of the LDH assay reagent in a 96-well plate and incubated for 30 minutes at room temperature in the dark; 30 μL of stop solution was added before the plate was read at OD495.

A further data set deals with RS4;11 cells. The experiment in a line: Cytokine release (CBA) in cytotoxicity co-culture. Format: cell-based, human. The settings on record: 1 nM switch. As for the experimental part: as §1
CAR-T or target cells were incubated with 1 pM to […] of switch in FACS buffer (PBS, 1% FCS, 2 mM EDTA) for 30 minutes at 4° C. before being washed twice and then incubated with the PE-conjugated goat-anti-human kappa antibody (1:100). Cells were washed two times and analyzed using the Accuri flow cytometer (BD). CAR-T cell activity was determined using the CytoTox 96® Non-Radioactive Cytotoxicity Assay (Promega). […]

The test system of a further data set is MOLM14 cell line. The experiment in a line: Cytokines in cytotoxicity assay supernatant (CBA Human Th1/Th2 II Kit). Further details: unit not given here. The settings on record: duplicates. Format: cell-based. The source says:
(§2) FIG. 38A illustrates multiple fusion/grafting locations: A=LCNT1 (light chain N terminus version 1), B=HCNT3 (heavy chain N terminus version 3), C=heavy chain C terminus, and D=light chain C terminus). […] Data shown are an average of duplicate samples, and error bars represent SD. Only the NT switches plus the BvCT and By CH1CL1 as references are depicted.
(§3) Monovalent and bivalent combinations of these switches were expressed and tested in cytotoxicity assays at a dose titration within the range of 0.4 nM to 0.0001 nM. […] Data shown are an average of duplicate samples, and error bars represent SD. Only the NT switches plus the BvCT and By CH1CL1 as references are depicted. cytokine secretion was measured.

The subject of another data set is CD33+ MOLM14 cells. The experiment in a line: Cytotoxicity assay, sCAR-T cells + anti-CD33 (hP67.6) switches. The settings on record: duplicates. Further details: unit not given here. The class given is cell-based.
Excerpt: as §2, §3

As to “anti-CD19 Fab HCCT: FMC63 anti-CD19 Fab, peptide on C-terminus of heavy chain (SEQ ID 27 & 34)”, in the data set on Nalm-6^Luc/GFP cells, the “tumor burden (IVIS), switch graft position comparison” value was “little control”. Further, the EC50 in the data set on RS4;11 (CD19 positive) came out at 0.02 ± 0.0009 nM.
Turning to “anti-CD19 Fab NTBV: FMC63 anti-CD19 Fab, peptide on N-terminus of light and heavy chain (SEQ ID 36 & 88)”, the “tumor burden (IVIS), switch graft position comparison” value with Nalm-6^Luc/GFP cells was “greatest reduction in tumor burden”. Moreover, the “cytokine production” value with RS4;11 cells (CD8 hinge sCAR-T) is “induced the greatest cytokine production; also recorded: induced the greatest IL-2 production”. Further, the “increase in IL-2 production” value in the data set on RS4;11 cells (CD8 sCAR-T cells) amounted to 50%.
Consider “anti-CD19 Fab WT: FMC63 anti-CD19 Fab with no grafted peptide (SEQ ID 27 & 29) [reference compound]”, for which the “cytotoxicity” value in the data set with RS4;11 (CD19 positive) was “did not induce significant cytotoxicity”.
Take “anti-CD19 IgG WT: FMC63 anti-CD19 IgG with no grafted peptide (SEQ ID 27 & 28) [reference compound]”: the “cytotoxicity” value with RS4;11 (CD19 positive) was “did not induce significant cytotoxicity”.

B1: hP67.6 HCNT: anti-CD33 hP67.6 Fab, GCN4 on heavy chain N-terminus, rigid linker SEQ ID 45 (SEQ ID 231 & 220) (protein)
light: DIQLTQSPSTLSASVGDRVTITCRASESLDNYGIRFLTWFQQKPGKAPKLLMYAASNQGSGVPSRFSGSGSGTEFTLTISSLQPDDFATYYCQQTKEVPWSFGQGTKVEVKRTVAAPSVFIFPPSDEQLKSGTASVVCLLNNFYPREAKVQWKVDNALQSGNSQESVTEQDSKDSTYSLSSTLTLSKADYEKHKVYACEVTHQGLSSPVTKSFNRGEC
heavy: NYHLENEVARLKKLLVGEAAAKEAAAKAEVQLVQSGAEVKKPGSSVKVSCKASGYTITDSNIHWVRQAPGQSLEWIGYIYPYNGGTDYNQKFKNRATLTVDNPTNTAYMELSSLRSEDTAFYYCVNGNPWLAYWGQGTLVTVSSARTKGPSVFPLAPSSKSTSGGTAALGCLVKDYFPEPVTVSWNSGALTSGVHTFPAVLQSSGLYSLSSVVTVPSSSLGTQTYICNVNHKPSNTKVDKKVEPKSC
modifications: GCN4 on heavy chain N-terminus; Made in lab - CD33 (hP67.6) LCWT; Made in Lab - CD33 (hP67.6) HCNT1
B1: the “IFNg in supernatant (FIG. 38H)” value in the data set on MOLM14 cell line is 1037.59 and 876.36. Further, in the data set on MOLM14 cell line, the “Il-2 in supernatant (FIG. 38H)” value was 861.13 and 653. In the data set with MOLM14 cell line, the “TNFa in supernatant (FIG. 38H)” value is 114.13 and 87.74. For the same molecule, the “cytotoxicity (FIG. 38G)” value was 0 in the data set on CD33+ MOLM14 cells (switch 0.1 pM); 10.3 and 8.3 with CD33+ MOLM14 cells (switch 3.2 pM); 47.8 and 45.5 with CD33+ MOLM14 cells (switch 16 pM); 65 and 64.4 in the data set with CD33+ MOLM14 cells (switch 80 pM); 69.4 and 70.2 with CD33+ MOLM14 cells (switch 400 pM).
